Measurements reported in article PMC3751857.

Molecular target: Gag of the HIV-1 YP- mutant (HIV-1 (pNL4-3))

Substance: Flag-DUb-TSG101 (from UniProt P10220 15-260)
- release of HIV-1 YP- virus from 293T cells co-expressing Flag-DUb-TSG101 (Figure 2A, lane 3); inactive DUb*-TSG101 and DUb-TSG101 M95A had no effect: > 95%
